Two substances from article PMC5494207 can be followed below.

Assay [1] has as its target FliG 117C/166C protein (E. coli) (UniProt P0ABZ1). Briefly: cross-linking.
Assay [2] concerns the target FliG 158C/214C mutant (E. coli) (UniProt P0ABZ1). Description: cross-linking.

“FliG 117C/166C protein (from UniProt P0ABZ1 1-331) (natural protein)”: the stoichiometry N in assay [1] was determined as 8 subunits.
In the case of “FliG 158C/214C mutant (from UniProt P0ABZ1 1-331) (natural protein)”, in assay [2], the stoichiometry N is over 9 subunits.

As a reminder, the stoichiometry N is the number of molecules, sites or subunits per partner or assembly.
